Substrate: O=C(O)C[C@H](C(=O)O)[C@@H](O)C(=O)O
Assay: purified protein
Assay type: biochemical, Toxoplasma gondii
Details: NADP+ co-substrate; Solarbio ICDHm kit

B1: TgICDH1 (Toxoplasma gondii) (protein)
chain: QRIKVDQPVVEMDGDEMARVIWAMIKEKLILPYLDIPLMYYDLSIQHRDKTDDQVTIDAALAIKRHGVGVKCATITPDEQRVKEFNLKKMWKSPNATIRNTLDGTIFRAPILMKNVPRLVPSWTKPIIIGRHAHADQYKALDFTVDKPGRFVMSFIPADKSNPEVHEVYEFKGGGVALGMYNTDASIKGFAHSCFQYALDQKMPLYLSTKNTVLKKYDGRFKDIFQTIYEKEYKQKFEEAGLWYEHRLIDDMVAQAIKSSGGFVWACKNYDGDVQSDVVAQGYGSLGLMTSVLVCPDGKTIEAEAAHGTVTRHYRQYQKGIKTSTNPIASIYAWTRSLGHRAKLDNNQKLKEFVEALEDACVETVEAGFMTKDLALAIKGDKLTDRDYLCTEDFMDKLARVAERKLLERQIISKA
notes: truncation AA180-594 (leader peptide removed), cloned from RH cDNA in pET-sumo, His-tag resin purified from E. coli BL21
Km: 160.7 µM

Source: PMC12234471, “The apicoplast localized isocitrate dehydrogenase is needed for de novo fatty acid synthesis in the apicoplast of Toxoplasma gondii” (Frontiers in Cellular and Infection Microbiology, 2025)
